These results are taken from the DeepSol protein solubility set.

The data set is described as follows: soluble on expression in E. coli; label from the status in PepcDB or PDB records.
Turning to “MTYPDLSRGAGPVAAGPQPTGLADLLERVLDKGLVIAGDIRVNLLDIELLTIKLRLVIASMETAQQAGIDWWTRDPWLKASESELLEENRRLREQLAQADTNGRKRIEGKESHD”, the “soluble on expression in E. coli” value is “not soluble”. As to “MSLIIDVLQHVPHEGPGLIANWARENQHQLKIHTLFEENEHVPKDSDFLIVLGGPMGINDTAEFPWLKDERKLIKRLSEQHKPVFGVCLGAQQIAATFGSEITVNKVKEVGWFPVKRTSDKLSFFPESLNVFHWHQDTFALPAGATRLFASEGCLNQAFLYGENIIGLQFHFEMEKAGIETILQIDEAFITPGKYVQSVEVMREKDVPEDNKQMLEAILDYLINPKTIEGHHHHHH”, the “soluble on expression in E. coli” value was “soluble”. The entry for “MTTSGHACPVPAVNGHMTHYPATPYPLLFPPVIGGLSLPPLHGLHGHPPPSGCSTPSPATIETQSTSSEELVPSPPSPLPPPRVYKPCFVCQDKSSGYHYGVSACEGCKGFFRRSIQKNMIYTCHRDKNCVINKVTRNRCQYCRLQKCFEVGMSKESVRNDRNKKKKETSKQECTESYEMTAELDDLTEKIRKAHQETFPSLCQLGKYTTNSSADHRVRLDLGLWDKFSELATKCIIKIVEFAKRLPGFTGLTIADQITLLKAACLDILILRICTRYTPEQDTMTFSDGLTLNRTQMHNAGFGPLTDLVFTFANQLLPLEMDDTETGLLSAICLICGDRQDLEEPTKVDKLQEPLLEALKIYIRKRRPSKPHMFPKILMKITDLRSISAKGAERVITLKMEIPGSMPPLIQEMLENSEGHEPLTPSSSGNTAEHSPSISPSSVENSGVSQSPLVQ” is “soluble”; for “MNDEDSEERRHHPKVPRLARQSHPEPPGPSSSTSSTPLFTDPTIHTILDQIGQRLASFSESDVKRIKNYLSTVTVTQEACVLLLLPNKEREKLMFAEIERHILENYEYSMIIHRYVNDVLKHAIETQFVNPDKLDESNDAWKDGLKMISEQKMRSSRYTAARARSQRFAIANDSYFPRPEIVPSTDHPVFASRPSVSTQEVRTGRQQIDQEVSGRKREFHGKLIPITGVVEEPSVRINAELQQSETQQIGDSSDQTDTATPISDIATHQDPENEISPSVTEGSNDIADDAGAGDDFSESTTGAVQPEQQASEHSNSEGVEKSSCAESLKEQPDQSSPAVSNTVSENSNTDSEICSGIDQNPNSDNLESTIDVGEPLRNTSDQPSPDPCSDVQIGVNSTTKQSTDPSVNVQLGHKSSDQPSTDPSAHAQLEDNCTIQPSTDPSSNDQLGDNTSDQNSTDPSSDVPMEDPGESGSAASTPPPDWDVAEVPIPQCSGHSDGNIGGTNEVTPPEQEAQVLAPRRSERSRIKNIWLSRDEVERLRYEFVPPPSRKDIPKCTAKKPEAEIPNVEPESSSTVESQRDEDQAVASASSVAEPLEEATTTSVPEPTEFQLSRDIYSTVKPTDEAHSPPIQAQPKKKATPRRKKADDVETVVADGTATIPKPKRKRPPRKKPEPKPNIVFETTPNPPTESFAANNNFQQFQFQNQPGSWTYNNGFGNGYGYGGGTTGYMDNLVGRGFDTVSQQPGFQNQGYEFTGLPANNSNNFPFL” it is “not soluble”. The same measure for “MRLYWRMPTTTPALRPQDLTETAFAPYGWMLGKPLPAGDDVLRFSNPATDFWQEHVFDTGAGAGRETEVLWVNYRISQPGFDTLEKHLLTQQAIVPLTGAIVQIVARSAFDGSPDLASLAAFVVPPGQGICMRPGCWHATRISGGEVTCLMLTRRSTTLDLVRHLHGEPARESEIVAIVPHGLDLPARPTAEGPAPHGRLEHHHHHH”: “not soluble”; for “MGSDKIHHHHHHLGPPTPLGLRAAPHNVTNLAQTPLAERLRSLVDTVQHNERTLRRFQSVELRLIGAQDFASFLDTLFGQLPREFSLAGVTLWLDDRAPMLRELLEPVALRALDQPRLRTSREGGLAAQGLCEDGRPWLGTPRELDDTVRRAFFGDAEQVPASAILLPLASGDTVGGYLWLGSDDAARFAQGMATDILERFASIVTASLDNVAHRERLKQLGMTDSLTGLANRRYFDERLREEVMRAVRYRMPVACLFIDIDSFKRINDTYGHQTGDRALAAVAACVRQQVRLGDTVARYGGEEFAALLQGDRADALTVAERVRLAVERLALQDDHGERIALTVSIGVAARMVSGTPTEAAMLGGAIIEEADRAMYQAKRNGRNRIEALVNASGDHTAG”: “not soluble”. The same measure for “MVVGGFGVGKTTLVRSVSEIRPLSTEETMTRAGETVDDISEVRGKSATTVAFDFGRISLDTRNILYLFGAPGQERFWFLWDRLFAGTLGAVVLVDTRRIDDSWYAIDRLERHGTPFIVACNDFGGPAHTPEQIREALDLDPHVPLIDCDARSRESSKRVLITLVEHLKSLYVPRAPELALLEHHHHHH”: “not soluble”. As to “MGSDKIHHHHHHMNQFKMSLFLPPISPVKDSATGRTVQPPTLTPYKEITLQEVYKLITSSERLKTLTETVRRAAENGDEKAYRMLKQQTLPYVTPCGVFSYRKSDSLTGPSGLIVVDIDHLDSRGEAEKLKRQLFDDRLLRPVLAFTSPGGRGVKAFIPYDLARIPDTRQNTSENIHWAMNYVQAIYDSHPDGEDKKTSRSGKGVDRSGKDLVRACFLSYDEEALIRREI”, the “soluble on expression in E. coli” value was “not soluble”. The entry for “MKKYLILVGSPPACGKTYVSGELAKRLNNPVYLDKDTVIPLSKMVFKAANQPYNRDSDFFKEYVRDAEYIVTFDLAFESLNYNNCVIVNAPFSKEFRDKGYMNNLKNKLKKYNAELIPVWVSCDIDVCHKRMIKRNSDRDTWKLNNWDEYVKGQNYTTPDLEGLFVVDNSSNEDFEAGLKKLLEKVLLEHHHHHH” is “soluble”; for “MEGLLIHAVLRELEKELPAQNLGLAFPEEGTAAILLKGRTGRLFNLVLHYRPPTPSLALEPGRLQGEPKTPFQRQLQARVKGPLVEASQLKLDRVAFFRFAGEKGFVDAPPSVLVLEATGRNANLLLLDEEGRILGVDRVITKEVNRYRELRPGLPYTPPPPYRKLDPRTLAEEDLLPLLGKPLKEVIRHVDGVGQELLRELARRAGLTPETPLDEAGLGRVYRALKTLVEDPSLRTELSEELRRRWAEEEKEALRKPLLEALDREIRTLKARLGDYQEALERLEEAEALRRRADLLLARLKEVPKGAEKVVLEGFDGKPVEIPLDPALSPQENARKLYDRARRLEELAEKALDLIPKTEARIRELEAEKERLRTLDLEGLLALAQRPKGEKGLKVGLRYTSPSGFLVLVGRNAKENDLLTRAAHSEDLWFHAQGVPGSHVILKTEGKNPPLEDLLFAARLAAYHSKARGERQVPVDYTRKKHVWRPRKAAPGQVLYTQAKTLFVEGLLPEPREEA” it is “soluble”. As to “SEPIYEEYLANHGTIVKPYYWLSFSLDCSNCPYHIRTGEEARVSLTEFCQIFGFPYGTTFPQTKHLTFYELKTSSGSLVQKGHASSCTGNYIHPESMLFEMNGYLDSAIYNNDSIRHIILYSNNSPCNEANHCCISKMYNFLITYPGITLSIYFSQLYHTEMDFPASAWNREALRSLASLWPRVVLSPISGGIWHSVLHSFISGVSGSHVFQPILTGRALADRHNAYEINAITGVKPYFTDVLLQTKRNPNTKAQEALESYPLNNAFPGQFFQMPSGQLQPNLPPDLRAPVVFVLVPLRDLPPMHMGQNPNKPRNIVRHLNMPQMSFQETKDLGRLPTGRSVEIVEITEQFASSKEADEKKKKKGKK”, the “soluble on expression in E. coli” value was “soluble”.

With “MGSDKIHHHHHHMGNATRIYEKHVDIKKDTVQDFWNKRAKKHIPENPYISVKCNDQNPDYAKNLDKYEKEIIIPKLNITRNSNILDIGCGVGRLADDIVPICNYYLGTDFAEDLISIAKKRFSDNDCDFQVCDFINTLYDTKVKSKMPFDTILLAGVTMYINDDELKIALKNLLGILDKKATIYISIPIGINKRLTLKEFYSKELNSEYNVIYRTIEEYEEILKPLLDEGFEIVESKSFLTDINQYSDTERHYFILKR”, the “soluble on expression in E. coli” value is recorded as “not soluble”. As to “MGSDKIHHHHHHVNQVSARRPVTVTGEDWFEIAKTLEISSESVVQDFLRDNPGFAADLVIPKRVTIETVFGCNARCGMCVIDQPTERPKGTMPLEQFKAIVDKLVPYRDRIEMMDFFALGEPLIDTHLFERIRYVKAKGFRRLAFATNAHLLTAAKRRDLLESGIDTVIFSIDGITKATHESIRERVNFDKVMENVQAVIRERDQGDFKTRFVVRFVRQAKNRHEWEEYKAFWSSRISPDRNDVVTSYDMHTWGGQVANKDDVIGGEQQRDEMVERLPCHHAFDKLTILADGSIPLCSEDILEPAYGFGKIGDQDPIQVFNSERLRAMRRLHLAGRKALLKGCGECTLLYSEPRRGSD”, the “soluble on expression in E. coli” value is given as “not soluble”.

As to “MSLGEFVFKGLLQEKGWIENAVVKTNDFGVITSIKSDPERKDGCDYAIPGFQNAHSHAFQYAMAGLAELHSTSKTKNDFWSWRKIMYDLALNITPDQMEDIATMLYKEMLRHGYTHVAEFHYLHHDLSGEKYNNCSEMGERIIAAAKRAGIKLTLVPIFYQNGGFGRKAENEQRRFISSSFNDYKNLVEASISSSKNYEHSSVAYGIHSMRAVSAENIIKLSEQKENGAPFHIHVSEQLKEIEDSVAFLGLRPVDWLSENIDLNPDYHLVHATHLTQNEIESIAKSQANVVLCPSTEGNLGDGIFPLNEFLKHGGKWSIGTDSHVGLNPFEELRILDYGQRLISHNRNTFGNNISGDNGNIAISSALVNGRKAMGIEQTHYFEVGKSFDALIISDQHPLIQTVSLKNLTNTLVYSSDNSMYKGTIVNGDWKIKDGQHADDNIHADFIQTLNALKVREGHHHHHH”, the “soluble on expression in E. coli” value is listed as “soluble”.

For the sequence “KVQKIIVSEAGASVYSASELAAKEFPNMDVSLRGAVSIARRLQDPLAELVKIDPKSIGVGQYQHDVSQSMLVKRLDAIVEDCVNAVGVDVNTASAALLTRVAGLSSTIAQNIVDFRDENGRFEARTTLKKVPRLGPKAFEQCAGFLRIMDGKNPLDASAVHPEAYPVVKAIAEKNRKDIKALIGDSTFLKGLHAVDYTDEHFG”, the “soluble on expression in E. coli” value is recorded as “not soluble”. The entry for “MSLNSESLGLLQEFLKTHKYKEFRDQAKNLRAPFILQAIVSTPTTVKYYTQGRLIKCCETDSTGNITTSYTYNDKGQLTTTLSVTEKNGQPINEVQTSRLYDPQGHCIFEVKTNPKTKTDFYRRARRIGIDGSIESDSLKYMDGRYTVSSYNKQGLLTETKEYNKNGEMEGYTVNKYDDKGRMTESQHQNMLFVNSPNQILSQKELYEYDKYGYLTRIVYQRIFGNSQKTSGCLTCLYDEYGNRIDGDSYYEYDNTGQWICRTSYDNPQQVERIQYIYKEGHHHHHH” is “not soluble”; for “EIAPLFTIENTVEEVEGMRPYTPLELAGRDIYVREGCYACHSQMIRTLRSDVERYGHYSLAAESMYDHPFQWGSKRTGPDLARIGGKYSDDWHVAHLEDPRALVPGSVMPGYAFLSATRLDTGHLPAALEALRRAGVPYTDAQIATAEQAAGWQADAEQAYESELQELFGDNVQLRDFDGRPGELTEMDALVAYLQVLGT” it is “not soluble”. The same measure for “MGSDKIHHHHHHMAKFQSYVICTSPRSGSTLLCNMLAATGVAGKPKSYFHHGSITDWLSYLNLDINPSLPESDLLAAIFEAAVETGRNGTGLFGLRLQRHSFDLFVEKLAVLYPTLASDRQRIEAAFGSTLFIHLTRLDKVQQAVSYVKAQQTGLWHRAPDGTELERLSAPRDPIYDAAKIHASYDEFIQYDRAWQSWFDMQGIQPLRITYEALCADPIASLKDVLVQLGVNGEAASSVVPGTAKLADGINQSWETRFRTEHLHSDPL”: “not soluble”; for “MRPKVSVALATYNGEKYIEEQLESIIKQTRAPDELVICDDCSNDETINIITKKIKNAHFDVKLVSNDKNIGYVQNFSKALEMSSGDIVFLCDQDDVWLSDKIEFIINKFNTRPDIQLLIHDVDYCKEDLTPIGQTKLQRMESNFDIESDYVVGMATAVRRSFLVHCLPVPSAPEVTHDEWLHDCARVLGCKGIVREVLALYRRHSLNVTAPSRLNVDFVTTRHYFGNESLAFLKLFRMETDLGSPDISPLVQWLDSRKMVLLDNGFSSEDRINTFIQYEEKRLRARNSRQSILRLDRWKRLFPIYDLYRSGGYHYYCGWKSALKDLLRTYALEHHHHHH”: “soluble”.
